# Assay results as given in article PMC8862428, “Modeling the stimulation by glutathione of the steady state kinetics of an adenosine triphosphate binding cassette transporter” (Protein Science : A Publication of the Protein Society, 2021).
# B1: NaAtm1 (Novosphingobium aromaticivorans DSM 12444) (protein)
# chain: MPPETATNPKDARHDGWQTLKRFLPYLWPADNAVLRRRVVGAILMVLLGKATTLALPFAYKKAVDAMTLGGGAQPALTVALAFVLAYALGRFSGVLFDNLRNIVFERVGQDATRHLAENVFARLHKLSLRFHLARRTGEVTKVIERGTKSIDTMLYFLLFNIAPTVIELTAVIVIFWLNFGLGLVTATILAVIAYVWTTRTITEWRTHLREKMNRLDGQALARAVDSLLNYETVKYFGAESREEARYASAARAYADAAVKSENSLGLLNIAQALIVNLLMAGAMAWTVYGWSQGKLTVGDLVFVNTYLTQLFRPLDMLGMVYRTIRQGLIDMAEMFRLIDTHIEVADVPNAPALVVNRPSVTFDNVVFGYDRDREILHGLSFEVAAGSRVAIVGPSGAGKSTIARLLFRFYDPWEGRILIDGQDIAHVTQTSLRAALGIVPQDSVLFNDTIGYNIAYGRDGASRAEVDAAAKGAAIADFIARLPQGYDTEVGERGLKLSGGEKQRVAIARTLVKNPPILLFDEATSALDTRTEQDILSTMRAVASHRTTISIAHRLSTIADSDTILVLDQGRLAEQGSHLDLLRRDGLYAEMWARQAAESAEVSEAAE
# notes: His-tag (NiNTA) purified from E. coli BL21-gold (DE3); 135 kDa transporter (homodimer); in DDM/C12E8 detergent, MSP1D1/POPC nanodiscs or proteoliposomes
# Substrate: Nc1ncnc2c1ncn2[C@@H]1O[C@H](COP(=O)(O)OP(=O)(O)OP(=O)(O)O)[C@@H](O)[C@H]1O
# Test: molybdate phosphate-release ATPase assay, global fit to nonessential activator model
# Format: biochemical, Novosphingobium aromaticivorans
# Settings: nanodiscs (MSP1D1/POPC), basal ATPase, constant for transporter without GSSG, Mg complex of ATP, 100 mM NaCl, 20 mM Tris pH 7.5, 37 °C
# Description: molybdate phosphate-release ATPase assay, global fit to nonessential activator model on NaAtm1
protein,measurement,value
B1,Km,1410 ± 80 µM
same,kcat,0.531 ± 0.0173 s⁻¹
